Reference: patent publication US12416034B2, “Recombinant production of steviol glycosides” (EVOLVA SA, priority 2011, dated 2025)

Assays:
[1] = Enzyme kinetics with UDP-glucose as substrate; assay type: biochemical
Protocol: (§1) A series of experiments were performed to determine kinetic parameters of EUGT11 and 91D2e-b. For both enzymes, 100 μM RebA, 300 μM UDP-glucose, and 10 U/mL Alkaline Phosphatase (Fermentas/Thermo Fisher, Waltham, MA) were used in the reactions. For EUGT11, the reactions were performed at 37° C. using 100 mM Tris-HCl, pH 7, and 2% enzyme. For 91D2e-b, the reactions were performed at 30° C. using 20 mM Hepes-NaOH, pH 7.6, 20% (by volume) enzyme. The initial velocities (V0) were calculated in the linear range of a product versus time plot.
(§2) Vmax and KM parameters were determined from the curve-fit Lineweaver-Burk data, calculated from the x- and y intercepts (x=0, y=1/Vmax) and (y=0, x=−1/KM). Additionally, the same parameters also were calculated by a non-linear least squares regression, using the SOLVER function in Excel. The results obtained with both methods for EUGT11 and RebA are presented in Table 12, along with all the kinetic parameters of this example. Kcat is calculated based on Vmax divided by the approximate amount of protein in the assay.
In order to investigate the influence of UDP-glucose concentration in the glycosylation reaction, as well as the affinity of EUGT11 for UDP-glucose, similar kinetics analysis were performed. EUGT11 was incubated with increasing amounts of UDP-glucose (20 μM, 50 μM, 100 μM, and 200 μM), maintaining an excess of RebA (500 μM).
(§3) In the case of UGT91D2e-b, RebA concentrations assayed were 50 μM, 100 μM, 200 μM, 300 μM, 400 μM and 500 μM. Concentration of UDP-glucose was always three times the concentration of RebA and incubation was performed at 30° C., in the reaction conditions described above for UGT91D2e-b. Additionally, kinetic parameters of UGT91D2e-b towards UDP-glucose were determined. UGT91D2e-b was incubated with increasing amounts of UDP-glucose (30 μM, 50 μM, 100 μM, and 200 μM), maintaining an excess of RebA (1500 μM). incubation was performed at 30° C., in optimal conditions for UGT91D2e-b.

[2] = In vitro transcribed and translated UGTs incubated with rubusoside, LC-MS; assay type: biochemical
Protocol: (§4) EUGT11 was produced by in vitro transcription and translation, and incubated with various substrates in the RebD pathway. Similar experiments were carried out using in vitro transcribed and translated UGT91D2e. […] Compounds 1-3 were identified solely by mass and expected retention time. The numbers shown in FIG. 3 are the average peak height of the indicated steviol glycoside obtained from a LC-MS chromatogram, and, although not quantitative, can be used to compare the activity of the two enzymes. […] Both enzymes were able to convert steviol 19-O-monoglucoside (SMG) to compound 1, with EUGT11 being about ten times more efficient than UGT91D2e at converting 19-SMG to compound 1.
The left panel of FIG. 5 contains LC-MS chromatograms of the conversion of rubusoside to stevioside. The right panel of FIG. 5 contains chromatograms of the conversion of rubusoside to stevioside, to compound 2, and to compound 3 (RebE). Conversion of rubusoside to compound 3 requires two consecutive 1, 2-O-glycosylations at the 19- and 13-positions of steviol.

[3] = Denaturation temperature by differential scanning calorimetry (DSC); assay type: physicochemical; conditions: 6HIS-purified enzymes, 91D2e-b GST-purified
Protocol: To assess the thermal stability of EUGT11 and to compare it with the other UGTs in the steviol glycosylation pathway, denaturation temperatures of the proteins were determined using differential scanning calorimetry (DSC). Use of DSC thermograms to estimate denaturation temperatures, TD, is described, for example, by E. Freire in Methods in Molecular Biology 1995, Vol. 40 191-218. DSC was performed (using 6HIS-purified EUGT11, yielding an apparent TD of 39° C.; while when GST-purified 91D2e-b was used, the measured TD was 79° C. For reference, the measured TD when using 6HIS-purified UGT74G1, UGT76G1 and UGT85C2 was 86° C. in all cases. One of skill in the art will recognize that enzyme immobilization or addition of thermal protectants can be added to the reactions to improve stability of the protein. Non-limiting examples of thermal protectants include trehalose, glycerol, ammonium sulphate, betaine, trimethylamine oxide, and proteins.

[4] = In vitro transcribed and translated UGTs incubated with steviol, LC-MS; assay type: biochemical
Protocol: as §4

[5] = Stability of EUGT11: pre-incubation before RebA to RebD reaction; assay type: physicochemical
Protocol: Reactions were conducted to explore the stability of EUGT11 under various RebA to RebD reaction conditions. Omitting the substrate from the reaction mixture, EUGT11 was pre-incubated for various periods of time before substrate was added. Following a pre-incubation of the enzyme in 100 mM Tris-HCl buffer, substrate (100 μM RebA) and other reaction components (300 μM UDP-glucose, and 10 U/mL Alkaline Phosphatase (Fermentas/Thermo Fisher, Waltham, MA)) were added (0, 1, 4 or 24 hours after the incubation was started). The reaction was then allowed to proceed for 20 h, after which the reactions were stopped and RebD product-formation measured. Experiments were repeated at different temperatures: 30° C., 32.7° C., 35.8° C. and 37° C.

[6] = Enzyme kinetics with RebA as substrate; assay type: biochemical; conditions: Reb A
Protocol: as §1
To first investigate the linearity intervals, initial time-courses were done for each enzyme. EUGT11 was assayed at 37° C. for 48 h at initial concentrations of 100 μM RebA and 300 μM UDP-glucose. UGT91D2e-b was assayed at 37° C. for 24 h at initial concentrations of 200 μM RebA and 600 μM UDP-glucose. Based on these range-finding studies, it was determined that the initial 10 minutes in the case of EUGT11, and the initial 20 minutes in UGT91D2e-b would be in the linear range with respect to product formation, and therefore initial velocities of each reaction were calculated in those intervals. In the case of EUGT11, RebA concentrations assayed were 30 μM, 50 μM, 100 μM, 200 μM, 300 μM and 500 μM. Concentration of UDP-glucose was always three times the concentration of RebA and incubation was performed at 37° C. By plotting the calculated V0 as a function of the substrate concentrations, Michaelis-Menten curves were generated. By plotting the reciprocal of V0 and the reciprocal of [S], a Lineweaver-Burk graphic was obtained, with y=339.85x+1.8644; R^2=0.9759.
as §2, §3

B1: EUGT11: UDP glycosyl transferase from Oryza sativa (GenBank AC133334), SEQ ID NO:152 (protein, listed as Oryza sativa)
chain: MDSGYSSSYAAAAGMHVVICPWLAFGHLLPCLDLAQRLASRGHRVSFVSTPRNISRLPPVRPALAPLVAFVALPLPRVEGLPDGAESTNDVPHDRPDMVELHRRAFDGLAAPFSEFLGTACADWVIVDVFHHWAAAAALEHKVPCAMMLLGSAHMIASIADRRLERAETESPAAAGQGRPAAAPTFEVARMKLIRTKGSSGMSLAERFSLTLSRSSLVVGRSCVEFEPETVPLLSTLRGKPITFLGLMPPLHEGRREDGEDATVRWLDAQPAKSVVYVALGSEVPLGVEKVHELALGLELAGTRFLWALRKPTGVSDADLLPAGFEERTRGRGVVATRWVPQMSILAHAAVGAFLTHCGWNSTIEGLMFGHPLIMLPIFGDQGPNARLIEAKNAGLQVARNDGDGSFDREGVAAAIRAVAVEEESSKVFQAKAKKLQEIVADMACHERYIDGFIQQLRSYKD
With B1 the Kcat ([1]; Lineweaver-Burk plot) was 0.202 s⁻¹, the Km ([1]; Lineweaver-Burk plot) was 118 µM and the Vmax ([1]; Lineweaver-Burk plot) was 0.78 µM/min. It also gave a Kcat ([1]; Nonlinear Least Square Fit) of 0.2053 s⁻¹, a Km ([1]; Nonlinear Least Square Fit) of 130 µM and a Vmax ([1]; Nonlinear Least Square Fit) of 0.79 µM/min. The “amount of compound 3 (RebE) produced from rubusoside” value [2] was “significant amount”, the “denaturation temperature TD” value [3] was 39 °C and the “use of steviol as a substrate” value [4] was “not able to use steviol as a substrate”. The activity after pre-incubation ([5]; 30° C., 4 hours) was “not significantly reduced”, the “activity remaining after pre-incubation” value ([5]; 30° C., 24 hours) was “approximately one-third” and the “activity remaining after pre-incubation” value ([5]; 37° C., 1 hour) was “approximately half”. The “activity remaining after pre-incubation” value ([5]; 37° C., 4 hours) was “almost no activity”, the Kcat ([6]; Lineweaver-Burk plot) was 0.14 s⁻¹ and the Km ([6]; Lineweaver-Burk plot) was 182 µM. The Vmax ([6]; Lineweaver-Burk plot) was 0.54 µM/min, the Kcat ([6]; Nonlinear Least Square Fit) was 0.135 s⁻¹ and the Km ([6]; Nonlinear Least Square Fit) was 162 µM. For the same molecule, the Vmax ([6]; Nonlinear Least Square Fit) was 0.52 µM/min.
